The term Kd denotes the free concentration of one partner at which half of the binding sites on the other are occupied at equilibrium, for simple one-to-one binding. A low value points to higher affinity.

Values joined by “and” are separate entries in the source; they are usually repeats but may differ in a detail not shown here. Equal values may be shown once.

This is an account of results in article PMC9272825 (The Journal of Physical Chemistry. B, 2022).

The assay has as its target N-terminal domain of enzyme I (EIN) (UniProt P08839 1-249). As to the kind of experiment: NMR titration.

B1: Histidine phosphocarrier protein (HPr) (natural protein)
chain: not shown
Take B1: the Kd is 2820 nM and 2450 nM and 3030 nM and 3020 nM.
